The experiment addresses T1, UBE2D2^(S22R C85K)–Ub (UniProt P62837 2-147; P0CG48 1-76, S22R | C85K).
T1 construct: UBE2D2 with S22R and C85K, conjugated to ubiquitin; ubiquitin (Ub), conjugated to UBE2D2; also called UBE2D2–Ub; UBE2D2–Ub conjugate; source: purified as described previously (Buetow et al, 2015)
Description: SPR; Biacore T200, 25°C; GST-MDM2 variants captured on anti-GST nanobodies on CM-5 chips (about 500 RU), GST as control; UBE2D2–Ub as analyte, seven twofold dilutions from 100 μM; 25 mM Tris-HCl pH 7.6, 300 mM NaCl, 0.5 mM TCEP, 0.005% Tween-20; steady-state affinity. The settings on record: both partners purified.

B1: GST-tagged MDM2^419-C containing the RING domain (domain or fragment, UniProt Q00987 419-491, looked up)
chain: TQDKEESVESSLPLNAIEPCVICQGRPKNGCIVHGKTGHLMACFTCAKKLKKRNKPCPVCRQPIQMIVLTYFP
notes: MDM2, residues 419 to the C-terminus (RING domain); TEV site between GST and MDM2 (modified pGEX-4T-1); the oligomeric state of the GST fusion was not measured here; also called GST-MDM2^RING; MDM2^RING; source: E. coli BL21-DE3; co-expressed with His-GFP-MDM2^220-334, in lysate (pull-down); not shown: GST, N-terminal, kept
What is called Kd is the equilibrium constant for the complex coming apart. The low end stands for tighter binding, the high end for weaker binding. For B1, the dissociation constant (Kd) was 14.5 ± 1.4 µM.

For the origin of these results see article PMC9366199, “Bivalent binding of p14ARF to MDM2 RING and acidic domains inhibits E3 ligase function” (Life Science Alliance, 2022).
